{"source": "the DeepSol protein solubility set", "data": [{"experiment": "soluble on expression in E. coli; label from the status in PepcDB or PDB records", "values": [{"sequence": "MALILTFLGKSGVARTKIAIAAAKLLASQGKRVLLAGLAEPVLPLLLEQTLTPDPQQIAPNLEVVQFQSSVLLERNWEEVKKLEAQYLRTPIIKEVYGQELVVLPGMDSALALNAIREYDASGKYDAIVYDGTGDAFTLRMLGLPESLSWYVRRFRQLFVNSDLGKTIAESPLIQPLISSFFNVNWTADNFAQPTNQVNNFLDKGKEALADPKRVAAFLVTTADPLEVVSVRYLWGSAQQIGLTIGGVIQVSSQTEGDLSAEFTPLSVTVVPDVTKGDWQPLIDALPNFVEQAEQAPKPITIDTHNRQVRLFLPGFDKKQVKLTQYGPEVTVEAGDQRRNIFLPPALSGRPITGAKFQNNYLIISFLEHHHHHH", "soluble on expression in E. coli": "soluble"}, {"sequence": "EFVINPNGKSEVCILHEYMQRVLKVRPVYNFFECENPSEPFGASVTIDGVTYGSGTASSKKLAKNKAARATLEILIPDFVKQTSE", "soluble on expression in E. coli": "soluble"}, {"sequence": "MSTSTAPSSASSDADSLNHDENPIKAVIFDYGEVMWMQSRNVHVYRKIEEDNKLFDNSLIPTLVSKELSSILPKGFQEDLLTGIYTAKDFDRLFLSAYNRKFGSQVESLKFFSATEYDNDAVYEEAVLTACQKLRERGVKTILMLDTYHVDEKRNGRRIPNMEKYFDHVIESCKEGVKKPDPRFYQIALDCVDVQPEEVIYIDDSKINCESAAVLGIRYIQVFNSMDMLEDLQEILGFDLD", "soluble on expression in E. coli": "not soluble"}, {"sequence": "MFSIIIPIYNSENYLRYSIESVLNQSIGFKENIELILIDDGSVDSSPQICESFKNLYPNNIKIMKIENSGPSAARNCGLSNVSERSKFIGFLDSDDAFSQNALQSVYDFFCDSEHVNIAVLPVYYTGEKEGGHKLNNRFEKGTRVINILNDYKAIHFYIGGTFYRRHTLTSTVLFDESIKFWEDAIFFNQLLLKEKRYGAVAEGKYFYRKRKEQDSLVDRSWFNKKRYTYLLNECYMTLLMDSFNKYDIVLPYLQFLIVYHIKLFLYPNYRDVYKSVLDQQEQRVFVDDFIKVLKFIDPQFIKEQDMPMYYKEFMFHLLKENTEALENIKKERVLHSSCTVTSAKIKGLRLELTGHFINQYYEMKENDRIYIKYFKRLKKCKRKELKKTIEVWGYKLRDFRYAGFVVEIPIWAFAFDFVLKTPNDSLELNHVNIFKSLLTRVFKKRLEHHHHHH", "soluble on expression in E. coli": "soluble"}, {"sequence": "MKKTLTVTLSSIAAFIAINTAANAQESETSQLDTYATGDVITNQSNLGIYIVKPGDSLYKIALEHNLSLEELYALNPGVEPLIFPGDEIVVSETAFEQFNNTNTFVNYETNYIPVGYNNVSTDTSNTTYDNYDSESTDTYSVSNAYDGLRSVSNSGNLYTTGQCTYYAFDRRAELGKPIGSLWGNASNWAYSANQAGFNVDHTPEVGAVFQSGPGQNGAGAYGHVGVVESINSNGSVTVSEMNWNGGVNVKSYRTISNPNSYNYIHLEHHHHHH", "soluble on expression in E. coli": "not soluble"}, {"sequence": "MGSDKIHHHHHHMMNTLAHPPGTDDATLSGMLSHFRLLEPVFDAMPDVVFFVKDAEARYALVNRTLASRCGFKEKTALLGRTAEDVFPRRFGRIYTAQDKAIINVGNQLIDQLELHLYPGRQPGWCLTCKQPLRNAAGKVVGLAGISRDLKADESSHPAYSRLATVVQSIQENYVQPLNLKQLAAMADMSVAQLERYFHKVFHLTPRQVLLKARLDAATALLVSHDKVTDVAALCGYTDHSAFTRQFKATVGVTPTEYRMLLHGTSRS", "soluble on expression in E. coli": "not soluble"}, {"sequence": "MSLKLPGKIAIMGGGSWATAIAKMCLAQEDSINWYMRRDDRIADFKRLGHNPAYLTGVKFDTKRITFSSNINDVVKESDTLIFVTPSPYLKAHLKKLKTKIKDKFIITAIKGIVPDDNVIVSEYFTKEYGVPPENIAVLAGPCHAEEVALERLSYLTIACPDKDKARIFARRLGSSFIKTSVSDDVAGIEYSSVLKNVYAIAAGICSGLKYGDNFQAVLISNAIQEMNRFLNTVHPLNRNVDDSVYLGDLLVTGYSNFSRNRTFGSMIGKGYSVKSAQIEMEMIAEGYYGTKCIKEINKHHHVNMPILDAVYNILYERISPMIEIKLLTDSFREGHHHHHH", "soluble on expression in E. coli": "soluble"}, {"sequence": "METFHWKVRPDMNVVSEPKVVTVKLGDGYEQRRAAGLNNQLSTYSVTIRVRKGEHPSLKAFLERHGGVRAFQWTPPYDWKLIRVVCRKWSASVGALWVTVTADFEQVVN", "soluble on expression in E. coli": "not soluble"}, {"sequence": "MSSGKVIVYGGKGALGSAILEFFKKNGYTVLNIDLSANDQADSNILVDGNKNWTEQEQSILEQTASSLQGSQVDGVFCVAGGWAGGSASSKDFVKNADLMIKQSVWSSAIAAKLATTHLKPGGLLQLTGAAAAMGPTPSMIGYGMAKAAVHHLTSSLAAKDSGLPDNSAVLTIMPVTLDTPMNRKWMPNADHSSWTPLSFISEHLLKWTTETSSRPSSGALLKITTENGTSTITPQ", "soluble on expression in E. coli": "soluble"}]}]}
